Laboratory results published in the Immune Epitope Database (IEDB).

Experiments:
Assay in all cases: IEDB peptide-MHC binding, purified MHC/competitive/radioactivity; filed as Kd, often an IC50 or EC50 that approximates it; ≥ and ≤ were set here for values at or beyond the usual limits of such assays
HLA-A*02:02 = conditions: source organism: Vaccinia virus WR
HLA-A*02:03 = biological target: HLA-A*02:03
HLA-A*02:06 = conditions: source organism: Vaccinia virus WR
HLA-B*08:01 = biological target: HLA-B*08:01
HLA-A*01:01 = biological target: HLA-A*01:01
HLA-A*23:01 = biological target: HLA-A*23:01
HLA-A*24:02 = biological target: HLA-A*24:02
HLA-A*26:01 = biological target: HLA-A*26:01
HLA-A*29:02 = biological target: HLA-A*29:02
HLA-A*30:02 = biological target: HLA-A*30:02
HLA-A*30:01 = conditions: source organism: Vaccinia virus WR
HLA-B*51:01 = conditions: source organism: Dengue virus 1 Brazil/97-11/1997
HLA-B*53:01 = conditions: source organism: Dengue virus 1 Brazil/97-11/1997
HLA-A*68:02 = conditions: source organism: Dengue virus 3 Martinique/1243/1999
[1] = source organism: Vaccinia virus WR
[2] = source organism: Mammarenavirus mopeiaense
[3] = source organism: Lymphocytic choriomeningitis virus (strain Armstrong)
[4] = source organism: SARS coronavirus Tor2
[5] = source organism: Mammarenavirus caliense
[6] = source organism: Mammarenavirus machupoense
[7] = source organism: Dengue virus 3 Singapore/8120/1995

For FMYTKHSML, the Kd (HLA-A*02:02) was 2.4 nM, the Kd (HLA-A*02:03; [1]) was 0.394 nM and the Kd (HLA-A*02:06) was 222 nM. The Kd (HLA-B*08:01; [1]) was 0.2 nM.

In the case of PYIASRTSIV, the Kd (HLA-A*01:01; [2]) is reported as ≥ 44.5 µM, the Kd (HLA-A*23:01; [2]) is reported as 1.59 µM and the Kd (HLA-A*24:02; [2]) is reported as 2500 nM. For the same sequence, the Kd (HLA-A*26:01; [2]) was ≥ 69.7 µM, the Kd (HLA-A*29:02; [2]) was ≥ 32.6 µM and the Kd (HLA-A*30:02; [2]) was ≥ 37.3 µM.

For QYVRSGKDHV, the Kd (HLA-A*01:01; [3]) was ≥ 70.4 µM, the Kd (HLA-A*23:01; [3]) was ≥ 50.2 µM and the Kd (HLA-A*24:02; [3]) was ≥ 70300 nM. For the same sequence, the Kd (HLA-A*26:01; [3]) was ≥ 69.7 µM, the Kd (HLA-A*29:02; [3]) was ≥ 71.4 µM and the Kd (HLA-A*30:02; [3]) was 1.44 µM.

Work on MSKSHAAYI yielded a Kd (HLA-A*30:01) of 0.227 nM.

In the case of MASVEPHWI, the Kd (HLA-B*51:01) is reported as 1790 nM and the Kd (HLA-B*53:01) is reported as 1400 nM.

For LTMKNKAWMV, the Kd (HLA-A*68:02) was 16.7 nM.

For VYKVYYGNAL, the Kd (HLA-A*01:01; [4]) was ≥ 37.2 µM, the Kd (HLA-A*23:01; [4]) was 0.746 µM and the Kd (HLA-A*24:02; [4]) was 203 nM. The Kd (HLA-A*26:01; [4]) was 11.7 µM, the Kd (HLA-A*29:02; [4]) was 7.77 µM and the Kd (HLA-A*30:02; [4]) was 5.98 µM.

In the case of YQPDTGNYI, the Kd (HLA-A*23:01; [5]) is reported as 5.79 µM, the Kd (HLA-A*24:02; [5]) is reported as 5260 nM and the Kd (HLA-A*29:02; [5]) is reported as ≥ 78.9 µM.

For RFKTKGRYNL, the Kd (HLA-A*23:01; [6]) was 0.0875 µM, the Kd (HLA-A*24:02; [6]) was 579 nM and the Kd (HLA-A*29:02; [6]) was 0.104 µM.

YEDQDALFAY was tested, and the Kd (HLA-A*01:01; [4]) was ≥ 92.6 µM, the Kd (HLA-A*23:01; [4]) was ≥ 70 µM and the Kd (HLA-A*24:02; [4]) was ≥ 70300 nM. For the same sequence, the Kd (HLA-A*26:01; [4]) was ≥ 64.8 µM, the Kd (HLA-A*29:02; [4]) was 0.53 µM and the Kd (HLA-A*30:02; [4]) was 2.03 µM.

Work on QKQTQRSGVL yielded a Kd (HLA-B*08:01; source organism: Dengue virus 3 Martinique/1243/1999) of 5800 nM.

Work on SRHQRLHDE yielded a Kd (HLA-B*08:01; [1]) of 453 nM.

TYASALWEI was tested, and the Kd (HLA-A*01:01; [4]) was ≥ 78.1 µM, the Kd (HLA-A*23:01; [4]) was 8.14 µM and the Kd (HLA-A*24:02; [4]) was ≥ 21500 nM. The Kd (HLA-A*26:01; [4]) was ≥ 77.9 µM, the Kd (HLA-A*29:02; [4]) was 14.2 µM and the Kd (HLA-A*30:02; [4]) was ≥ 81.1 µM.

TATLILAGV was tested, and the Kd (HLA-A*68:02) was 1.07 nM.

With LLVTHYAII the Kd (HLA-A*02:03; [7]) was 39.2 nM and the Kd (HLA-B*08:01; [7]) was 667 nM.
